Molecular target: Mouse CT-1 fusion protein (mouse cardiotrophin-1 with a 34 amino acid N-terminal extension that encodes a portion of the herpes simplex virus glycoprotein D and a factor Xa cleavage site) (mouse) (UniProt Q60753)
Assay: 125I-mouse CT-1 binding to soluble LIF receptor with added soluble gp130, Ni-NTA agarose

Sequence of Mouse CT-1 fusion protein (mouse cardiotrophin-1 with a 34 amino acid N-terminal extension that encodes a portion of the herpes simplex virus glycoprotein D and a factor Xa cleavage site) (mouse) (Q60753 whole entry, the tested form may be a part): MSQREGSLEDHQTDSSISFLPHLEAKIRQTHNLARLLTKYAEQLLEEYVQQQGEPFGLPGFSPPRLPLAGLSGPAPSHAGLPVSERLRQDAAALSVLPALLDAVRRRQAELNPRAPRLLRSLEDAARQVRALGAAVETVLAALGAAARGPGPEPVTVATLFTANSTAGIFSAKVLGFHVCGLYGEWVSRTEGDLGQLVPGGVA

## Soluble mouse gp130 (extracellular domain, amino acids 1-617, with a C-terminal tag of 6 histidine residues) (from UniProt Q00560 23-617) (receptor)
  concentration of soluble gp130 required to increase the binding of CT-1 to the soluble LIF receptor: 100 nM

— patent US20040006018A1
